# Assay results from US7247438.
# T1: purified, recombinant Yama/caspase-3, P42574
# T1 chain: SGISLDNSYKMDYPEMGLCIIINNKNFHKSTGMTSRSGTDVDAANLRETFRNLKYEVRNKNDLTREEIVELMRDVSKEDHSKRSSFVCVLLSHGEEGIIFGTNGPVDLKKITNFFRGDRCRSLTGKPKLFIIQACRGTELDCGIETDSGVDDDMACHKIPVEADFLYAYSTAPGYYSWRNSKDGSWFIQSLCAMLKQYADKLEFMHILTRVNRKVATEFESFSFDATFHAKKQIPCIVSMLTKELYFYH
# B1: biotin-YVADamk (peptide)
# peptide: YVAD
# modifications: not checked
# Biological target: T1, purified, recombinant Yama/caspase-3, …
# Assay: recombinant enzyme labelled with biotinylated inhibitor, blot
# Conditions: remark: other sources report otherwise
binder,measurement,value
B1,fold more enzyme needed for detection,100 times
